Measurements taken from paper doi:10.1101/2022.11.03.515106 (bioRxiv, 2022).

B1: TTDN1-mCherry (natural protein, human, UniProt Q8TAP9 1-179, looked up)
chain: MQRQNFRPPTPPYPGPGGGGWGSGSSFRGTPGGGGPRPPSPRDGYGSPHHTPPYGPRSRPYGSSHSPRHGGSFPGGRFGSPSPGGYPGSYSRSPAGSQQQFGYSPGQQQTHPQGSPRTSTPFGSGRVREKRMSNELENYFKPSMLEDPWAGLEPVSVVDISQQYSNTQTFTGKKGRYFC
B2: GST-TTDN1 (natural protein, human, UniProt Q8TAP9 1-179, looked up)
chain: B1 chain

Assays:
GFP-DBR1 = target: T1, GFP-DBR1 (human, UniProt Q9UK59 1-544); assay: pull-down
T1 sequence: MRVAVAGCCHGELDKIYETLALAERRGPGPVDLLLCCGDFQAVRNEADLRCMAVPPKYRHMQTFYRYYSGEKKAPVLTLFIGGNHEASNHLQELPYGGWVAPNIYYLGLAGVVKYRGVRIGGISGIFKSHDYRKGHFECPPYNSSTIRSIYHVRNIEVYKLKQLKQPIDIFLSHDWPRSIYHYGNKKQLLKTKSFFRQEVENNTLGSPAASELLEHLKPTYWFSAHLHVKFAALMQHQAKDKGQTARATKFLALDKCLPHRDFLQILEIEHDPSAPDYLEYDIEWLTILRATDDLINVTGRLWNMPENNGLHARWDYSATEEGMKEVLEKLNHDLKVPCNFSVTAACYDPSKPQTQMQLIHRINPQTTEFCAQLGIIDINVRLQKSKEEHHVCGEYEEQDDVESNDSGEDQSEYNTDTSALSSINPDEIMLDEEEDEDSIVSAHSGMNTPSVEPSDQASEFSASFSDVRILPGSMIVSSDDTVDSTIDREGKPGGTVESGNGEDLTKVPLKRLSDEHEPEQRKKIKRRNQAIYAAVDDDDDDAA

His-Flag-DBR1 = target: T2, His-Flag-DBR1 (human, UniProt Q9UK59 1-544); assay: pull-down
T2 sequence (looked up): T1 sequence

Binder	binding result (GFP-DBR1)	binding result (His-Flag-DBR1)
B1	binds	–
B2	–	binds
